Reference: patent US9931415B2, “Pyrrolobenzodiazepine-antibody conjugates” (ADC THERAPEUTICS S.A., priority 2012, dated 2018)

How the values were obtained:
CD25 on Karpas299 cells = molecular target: T1, CD25 on Karpas299 cells (Homo sapiens, UniProt P01589); assay: Binding of HuMax-TAC to CD25 +ve cell lines by flow cytometry (Karpas299)
T1 construct: Surface CD25 expression on Karpas and SU-DHL-1 was determined by flow cytometry; endogenous in cells; host or cells: Karpas299 and SU-DHL-1 cell lines
T1 sequence (P01589 22-272): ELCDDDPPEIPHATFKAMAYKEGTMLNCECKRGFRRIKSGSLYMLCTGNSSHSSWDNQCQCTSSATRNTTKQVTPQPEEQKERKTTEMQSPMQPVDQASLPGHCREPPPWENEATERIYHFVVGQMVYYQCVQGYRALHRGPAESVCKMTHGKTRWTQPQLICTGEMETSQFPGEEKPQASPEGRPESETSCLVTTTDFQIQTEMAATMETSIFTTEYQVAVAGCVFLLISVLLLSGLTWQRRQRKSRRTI
Method: (§1) Karpas299 and SU-DHL-1 anaplastic large cell lymphoma (ALCL)-derived cell lines have been previously reported to express CD25 (2,3). To confirm their expression profile, CD25 surface expression was analyzed by flow cytometry. HuMax-TAC was used as a CD25-specific antibody. B12 was used as a negative control antibody.
(§2) Surface CD25 expression on Karpas and SU-DHL-1 was determined by flow cytometry. Graphs represent the average of three (Karpas299) or four independent experiments (SU-DHL-1). EC50 values are reported in ng/ml.

CD25 on SU-DHL-1 cells = molecular target: T2, CD25 on SU-DHL-1 cells (Homo sapiens, UniProt P01589); assay: Binding of HuMax-TAC to CD25 +ve cell lines by flow cytometry (SU-DHL-1)
T2 construct: endogenous in cells; host or cells: Karpas299 and SU-DHL-1 cell lines
T2 sequence (P01589 22-272): T1 sequence (P01589 22-272)
Method: as §1, §2

binding to cell surface CD25 (flow cytometry) (CD25 on Karpas299 cells): specifically bound
EC50 (CD25 on Karpas299 cells; flow cytometry, average of three experiments): 0.02021 µg/mL
binding to cell surface CD25 (flow cytometry) (CD25 on SU-DHL-1 cells): specifically bound
EC50 (CD25 on SU-DHL-1 cells; flow cytometry, average of four experiments): 0.03406 µg/mL
Substance: HuMax-TAC: anti-CD25 antibody comprising a VH domain of SEQ ID NO. 1 and a VL domain of SEQ ID NO. 2
